Patent US20110038920A1, “WOUND HEALING COMPOSITIONS AND TREATMENTS” (priority 2008, published 2011)

Tested on: OPN expression in Swiss 3T3 fibroblasts
Assay: Induction of OPN expression in fibroblasts by growth factors/cytokines (Western blot)
Assay type: cell-based
Settings: 8 h; PDGF-BB 20, EGF 100, TGFβ1 10, TGFβ3 10, IL-6 50, TNFα 10 ng/ml
Description: Protein samples (20 μg; collected in T-PER® Reagent; PIERCE Biotechnology) were separated on Tris-Glycine Gels (Invitrogen), transferred to PVDF, and blotted according to standard protocols (antibody details are provided above).
Swiss 3T3, J774.1 macrophages, and RBL mast cells were cultured in DMEM+10% fetal calf serum. Primary neutrophils were harvested by peritoneal lavage 4 h post-thioglycollate-induced peritonitis, and primary macrophages were derived from mouse bone marrow and activated with LPS (500 ng/ml).

B1: TGFβ3: growth factor/cytokine, BioVision (protein, UniProt P10600 301-412, looked up)
Transforming growth factor …: ALDTNYCFRNLEENCCVRPLYIDFRQDLGWKWVHEPKGYYANFCSGPCPYLRSADTTHSTVLGLYNTLNPEASASPCCVPQDLEPLTILYYVGRTPKVEQLSNMVVKSCKCS
modifications: Transforming growth factor beta-3
notes: growth factor/cytokine, BioVision
ability to upregulate OPN expression in Swiss 3T3s: not
